Measured values: patent publication US20240425569A1 (VISTERRA, published 2024)
Where two headings read alike, the source gives them in different places.

What was measured:
[1] = biological target: T1, Philippines/1956 (H87)* (serotype III EDIII) (Dengue virus 3)
T1 construct: isolated EDIII protein

[2] = biological target: T2, Nicaragua/2010 (serotype III EDIII)
T2 construct: also called ED3-DV3/Nicaragua10; DENV-3 Nic
T2 E protein domain III (EDIII): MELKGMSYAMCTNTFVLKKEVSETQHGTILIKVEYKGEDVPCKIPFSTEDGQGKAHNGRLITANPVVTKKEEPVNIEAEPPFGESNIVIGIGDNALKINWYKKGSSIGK

[3] = biological target: T3, Hawaii/1944* (serotype I EDIII) (Dengue virus 1); test: ELISA; row Hawaii/1944*, serotype I, genotype I
T3 construct: isolated EDIII protein; also called EDIII of DENV-1 Hawaii/1944

[4] = biological target: T4, Mexico/1977 (BC287/97)* (serotype IV EDIII) (Dengue virus 4); test: ELISA; row Mexico/1977 (BC287/97)*, serotype IV, genotype IIa
T4 construct: isolated EDIII protein; also called EDIII of DENV-4 Mexico/1997 (BC287/97); DENV-4 BC2

[5] = biological target: T5, EDIII-DV4 (E protein domain III of dengue virus serotype DV-4) (dengue virus serotype DV-4, UniProt P09866 572-679); test: competition ELISA; column 'EDIII-DV4'
T5 construct: also called DENV-4

[6] = biological target: T6, Venezuela/2008 (serotype IV EDIII); test: ELISA; row Venezuela/2008, serotype IV, genotype IIa
T6 E protein domain III (EDIII): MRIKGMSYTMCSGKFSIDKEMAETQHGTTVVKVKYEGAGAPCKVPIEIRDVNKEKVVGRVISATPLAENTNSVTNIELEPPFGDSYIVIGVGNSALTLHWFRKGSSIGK

[7] = biological target: T4, Mexico/1977 (BC287/97)* (serotype IV …); test: SPR; row Mexico/1977 (BC287/97)*, serotype IV, genotype IIa
[8] = biological target: T4, Mexico/1977 (BC287/97)* (serotype IV …); test: Kd table, method not stated; Ag DENV-4 BC2
[9] = biological target: T2, Nicaragua/2010 (serotype III EDIII)
[10] = biological target: T1, Philippines/1956 (H87)* (serotype III …); test: ELISA; row Philippines/1956 (H87)*, serotype III, genotype I
[11] = biological target: T7, EDIII-DV3 (E protein domain III of dengue virus serotype DV-3) (dengue virus serotype DV-3, UniProt P27915 571-678)
T7 construct: also called DENV-3; EDIII of DV-3

[12] = biological target: T5, EDIII-DV4 (E protein domain III of …)
[13] = biological target: T7, EDIII-DV3 (E protein domain III of …); test: competition ELISA
[14] = biological target: T8, EDIII-DV1 (E protein domain III of dengue virus serotype DV-1) (dengue virus serotype DV-1, UniProt P17763 573-680); test: competition ELISA
T8 construct: also called DENV-1; EDIII of DV-1
T8 chain: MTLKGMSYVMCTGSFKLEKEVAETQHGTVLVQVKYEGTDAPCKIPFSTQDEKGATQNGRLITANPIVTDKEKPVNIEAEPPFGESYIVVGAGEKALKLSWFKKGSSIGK

[15] = biological target: T9, EDIII-DV2 (E protein domain III of dengue virus serotype DV-2) (dengue virus serotype DV-2, UniProt P14337 573-677); test: competition ELISA
T9 construct: also called DENV-2; EDIII of DV-2

[16] = biological target: T10, Singapore/2009 (serotype III EDIII)
T10 construct: also called ED3-DV3/Sing09; DENV-3 Sing
T10 E protein domain III (EDIII): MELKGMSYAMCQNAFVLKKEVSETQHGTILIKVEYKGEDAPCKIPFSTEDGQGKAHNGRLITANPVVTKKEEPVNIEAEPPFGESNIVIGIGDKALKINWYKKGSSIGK

[17] = biological target: ED3-DV4/H241/Phil56 (EDIII of DENV-4 strain H241) (dengue virus serotype DENV-4, strain …, UniProt Q58HT7 572-679); test: SPR; row Philippines/1956 (H241)*, serotype IV, genotype I
[18] = biological target: T11, Singapore/2008 (serotype II EDIII); test: SPR; row Singapore/2008, serotype II, genotype Cosmopolitan
T11 construct: also called ED3-DV2/Sing08; DENV-2 Sing

[19] = biological target: T12, New Guinea/1944 (NGC)* (serotype II EDIII) (Dengue virus 2); test: ELISA; row New Guinea/1944 (NGC)*, serotype II, genotype Asian I
T12 construct: isolated EDIII protein; also called EDIII of DENV-2 NGC

[20] = biological target: T13, New Caledonia/2009 (serotype IV EDIII); test: SPR; row New Caledonia/2009, serotype IV, genotype IIb
T13 construct: also called ED3-DV4/NewCal09; DENV-4 NC
T13 E protein domain III (EDIII): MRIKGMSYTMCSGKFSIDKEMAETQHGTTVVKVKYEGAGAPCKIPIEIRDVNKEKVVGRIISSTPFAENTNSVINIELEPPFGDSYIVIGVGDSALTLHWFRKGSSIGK

B1: antibody D88 (antibody, V domains shown)
VH: QVQLVQSGAEVKKPGASVKVSCKAGFNIKDVYMSWVRQAPEQGLEWMGRIDPENGDTKYDPKLQGRVTMTADTSTNTAYMELRSLRSDDTAVYYCARGWEGFAYWGQGTLVTVSS
VL: DIVMTQSPASLAVSLGERATISCRASENVDKYGNSFMHWYQQKPGQPPKLLIYRASELQWGVPDRFSGSGSGTDFTLTISSLQAEDVAVYYCQRSNEVPWTFGQGTKLEIK
notes: also called mAb D88
In the case of B1, the Kd [1] is reported as 1.2 nM, the Kd [2] is reported as 4.91 nM and the Kd [3] is reported as < 0.1 nM. For the same binder, the Kd [4] was 4.32 nM, the Kd [5] was 6.12 nM and the Kd [6] was 4.5 nM. For the same binder, the Kd [7] was 3.8 nM, the Kd [8] was 7.2 nM and the Kd [9] was 3.3 nM. For the same binder, the Kd [10] was 1.24 nM, the Kd [11] was 1.05 nM and the Kd [12] was 5.01 nM. The Kd [13] was 1.21 nM, the Kd [14] was < 0.1 nM and the Kd [15] was < 0.1 nM. The Kd [16] was 0.33 nM, the Kd [17] was 118 nM and the Kd [18] was 0.024 nM. For the same binder, the Kd [19] was < 0.1 nM and the Kd [20] was 8.9 nM.
